Results on four molecules are retold here after patent publication US20220054630A1 (UNIVERSITY OF MARYLAND COLLEGE PARK, published 2022).

The assay has as its target T1, CD81 large extracellular loop (LEL) (UniProt P60033 113-201).
T1 construct: domain: large extracellular loop (LEL); not shown: C-terminal twin Strep tag
T1 sequence: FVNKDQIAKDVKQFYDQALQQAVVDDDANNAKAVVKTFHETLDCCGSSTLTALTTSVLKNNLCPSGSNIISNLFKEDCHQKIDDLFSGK
Description: BLI (Octet RED96), His6-tagged sE2 on Ni-NTA biosensors, CD81-LEL in solution. A general note: BLI is a label-free optical method that tracks binding on a fibre tip over time.

B1: sE2 design H445P (other)
chain: ETHVTGGSAGRTTAGLVGLLTPGAKQNIQLINTNGSWHINSTALNCNESLNTGWLAGLFYQPKFNSSGCPERLASCRRLTDFAQGWGPISYANGSGLDERPYCWHYPPRPCGIVPAKSVCGPVYCFTPSPVVVGTTDRSGAPTYSWGANDTDVFVLNNTRPPLGNWFGCTWMNSTGFTKVCGAPPCVIGGVGNNTLLCPTDCFRKHPEATYSRCGSGPWITPRCMVDYPYRLWHYPCTINYTIFKVRMYVGGVEHRLEAACNWTRGERCDLEDRDRSE
B1: the binding result was “binds”.

B2: sE2 design Y632NS (Y632N-G634S) (other)
chain: ETHVTGGSAGRTTAGLVGLLTPGAKQNIQLINTNGSWHINSTALNCNESLNTGWLAGLFYQHKFNSSGCPERLASCRRLTDFAQGWGPISYANGSGLDERPYCWHYPPRPCGIVPAKSVCGPVYCFTPSPVVVGTTDRSGAPTYSWGANDTDVFVLNNTRPPLGNWFGCTWMNSTGFTKVCGAPPCVIGGVGNNTLLCPTDCFRKHPEATYSRCGSGPWITPRCMVDYPYRLWHYPCTINYTIFKVRMNVSGVEHRLEAACNWTRGERCDLEDRDRSE
For B2, the binding result is given as “binds”.

B3: wild-type soluble E2 (sE2), HCV isolate H77C, residues 384-661 (other)
chain: ETHVTGGSAGRTTAGLVGLLTPGAKQNIQLINTNGSWHINSTALNCNESLNTGWLAGLFYQHKFNSSGCPERLASCRRLTDFAQGWGPISYANGSGLDERPYCWHYPPRPCGIVPAKSVCGPVYCFTPSPVVVGTTDRSGAPTYSWGANDTDVFVLNNTRPPLGNWFGCTWMNSTGFTKVCGAPPCVIGGVGNNTLLCPTDCFRKHPEATYSRCGSGPWITPRCMVDYPYRLWHYPCTINYTIFKVRMYVGGVEHRLEAACNWTRGERCDLEDRDRSE
For the molecule B3, the binding result is recorded as “binds”.

B4: sE2 design Triple (ΔHVR1-H445P-Y632NS) (other)
chain: KQNIQLINTNGSWHINSTALNCNESLNTGWLAGLFYQPKFNSSGCPERLASCRRLTDFAQGWGPISYANGSGLDERPYCWHYPPRPCGIVPAKSVCGPVYCFTPSPVVVGTTDRSGAPTYSWGANDTDVFVLNNTRPPLGNWFGCTWMNSTGFTKVCGAPPCVIGGVGNNTLLCPTDCFRKHPEATYSRCGSGPWITPRCMVDYPYRLWHYPCTINYTIFKVRMNVSGVEHRLEAACNWTRGERCDLEDRDRSE
Take B4: the binding result was “binds”.
